Test system: MS2 coat protein
Experiment: apparent KD of MS2 coat protein; designed switch direction (-1 OFF switch, 1 ON switch): -1; higher = weaker reporter binding
Outline: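 Designed RNA switches sharing common flanks were transcribed on Illumina chips by stalled E. coli RNA polymerase. They were titrated with SNAP-549-labelled MS2 coat protein, from 0.7 or 1.5 nM doubling to 3 µM, in Tris-HCl pH 7.5 buffer with KCl, MgCl2, BSA, DTT, tRNA and Tween-20. Titrations ran without input, with 200 uM small-molecule ligand, or with an oligonucleotide input. The apparent KD of each design is the median over its clusters, after curve-fitting of normalised cluster fluorescence.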

[1] = input ligand: microRNA oligo, concentration not stated
[2] = Eterna round: R95, input ligand: FMN 200 uM
[3] = Eterna round: R95, input ligand: microRNA oligo, concentration not stated
[4] = Eterna round: R95, input ligand: none

Row | Sequence | apparent KD of MS2 coat protein (input ligand: FMN 200 uM) | apparent KD of MS2 coat protein (input ligand: none) | apparent KD of MS2 coat protein [1] | apparent KD of MS2 coat protein [2] | apparent KD of MS2 coat protein [3] | apparent KD of MS2 coat protein [4]
1 | CCAGGAAGGCAGGAUAUCCAAAGCCGUCCCGGCGGAGAAGGGCUAACUUGAGGAUCACCCAAGUGAUGCCUAAC [Oreden] (Eterna round: R97, puzzle: Exclusion 6) | 13 nM | 14.2 nM | – | – | – | –
2 | CAGUACUGAGGAUAUACAUGAGGAUCACCCAUGUAUCCUAGCUAGGAAACUAGCAAAAGUAGAAGGCAGUACUG [Ex3: 819] (Eterna round: R96, puzzle: Exclusion 3) | – | – | 12.4 nM | – | – | –
3 | CCAAGAUAAGGAUAUUGAAGGUUCGACAUGAGGAUCACCCAUGUUAUGUUGGAAAAGGGACAAGAAGGUAUGAAAA [salish99_ex5_r4_215] (Eterna round: R97, puzzle: Exclusion 5) | 27.6 nM | 34.3 nM | – | – | – | –
4 | UGUACUAUGCGAGCUGACUUGCGUAGUGCAGCAGGUGUAACAUGAGGAUCACCCAUGUCCUCAUUUGCUCGUCUUAU [SL-sv3-2.05 JL mod] (puzzle: Sensor v3, turn-off variant 2) | – | – | – | 347 nM | 297 nM | 414 nM
5 | CGGUCCCAUGUGAGGAUAUCGGAGCGAAAAUACUGCGAGAAGGUACAUGAGGAUCACCCAUGUCUCCUAUUGCC [Entiedxebe] (puzzle: Brourd's mod of Exclusion 4) | – | – | – | – | 15.2 nM | –
6 | AGUUGGCGAGGAUAUACAUGAGGAUCACCCAUGUGAAAUUAAAGUGAGGAAAUGAAAAGUAGAAGGCGCUGACA [Mod of Mat - Jieux - Exclusion 3] (Eterna round: R97, puzzle: Exclusion 3) | 686 nM | 67.7 nM | – | – | – | –
7 | UCGAGGUCAGGAUAUACAUGAGGAUCACCCAUGUGGAAGUAAGGUAGGAGAAGAGUAGGUAGAAGGGACGAGGG [JR_Exclu3_Sub051] (puzzle: Exclusion 3) | – | – | – | 38.2 nM | 37.9 nM | 46.3 nM
8 | UACACUGCAUGAGGAUCAAACAUGAGGAUCACCCAUGUAUUGCAAGCUUUUUGCACGUCUUAUAAUUAUGUAGUGUA [Electric Eye 20 - Jieux - Sensor, turn-off variant 1] (Eterna round: R97, puzzle: Sensor, turn-off variant 1) | 17.2 nM | 17.2 nM | – | – | – | –
9 | GAGGGACAUGAGGAUCACCCAUGUGAGGAUAUGUGAGAAGGAUUGGAGAGAAUAAGAAACAGAAGGCGCGGGAG [JR_Exclu1_Sub087] (puzzle: Exclusion 1) | – | – | – | 48.9 nM | 52.5 nM | 116 nM
10 | AAAUAGUUAGGAUAUACAUGAGGAUCACCCAUGUAGGGUUCCGUCAUGCAGAAAAUGCGUAGAAGGAACUAUCC [EX3 A.22] (Eterna round: R97, puzzle: Exclusion 3) | 16.6 nM | 17.6 nM | – | – | – | –
11 | UUUUAGGGAGGAUAUACAUUUUUUUUAUUAUCCUCAUUAUUACAUGAGGAUCACCCAUGUAGAAGGCCCAUUUU [My Design] (puzzle: Exclusion 2) | – | – | – | – | 84 nM | –
12 | GAGAAAGCAAACAGGUGAAACAUGAGGAUCACCCAUGUCCUCAUUUGCUCGUCUUAUAAGCUAUGCGAAAGCAUAGC [Mat - Sensor v3 - turn-off var 1 - Eli Mod - D54] (puzzle: Sensor v3, turn-off variant 1) | – | – | – | 63.5 nM | 642 nM | 58.7 nM
13 | CCUAGUUGGUAAGGAUAUCCUACACUAUUCUGACCCGUGCAAGCUACAUGAGGAUCACCCAUGUGGGAGAAGGUGCGUUAACGU [Design 9] (Eterna round: R96, puzzle: Exclusion NG 2) | 31.2 nM | 26.7 nM | 23.4 nM | – | – | –
14 | ACUUAUUGAGGAUAUACAUUAAAUUACAUGAGGAUCACCCAUGUUCUUCAAUGUAUAUAUGUAGAAGGCAGAAGAA [JL-ex5-4.27 Malcolm mod] (Eterna round: R97, puzzle: Exclusion 5) | 14.9 nM | 16.4 nM | – | – | – | –
15 | GAUCAUGCAGGAUAUACAGUAUCCAUGAAAACAUGGAUCUAACAUGAGGAUCACCCAUGUAGAAGGGCAUGAUC [Omei Ex2 A24] (Eterna round: R97, puzzle: Exclusion 2) | 17.9 nM | 19 nM | – | – | – | –
16 | UUUUAACAUGAGGAUCACCCAUGUGAGGAUAUCGAAAUUUAUAUUAAUAUUUUUAUUACGAGAAGGCACAUUUU [JMF 74] (puzzle: Exclusion 1) | – | – | – | – | 70.5 nM | –
17 | CAGAAUUGAGGAUAUGAUCAAUUUAACAUGAGGAUCACCCAUGUAUGGGAAUGAUUCUGAUCAGAAGGCGAUUCUA [Exclusion 5: 1:b] (puzzle: Exclusion 5) | – | – | – | 289 nM | 408 nM | 79 nM

Row | Sequence | apparent KD of MS2 coat protein (input ligand: FMN 200 uM) | apparent KD of MS2 coat protein (input ligand: none) | apparent KD of MS2 coat protein [1] | apparent KD of MS2 coat protein [2] | apparent KD of MS2 coat protein [3] | apparent KD of MS2 coat protein [4]
18 | UUCAGACAUGAGGAUCACCCAUGUGAGGAUAUGAUGCGAUCGUCGAAAGACGAUAGCAUCAGAAGGUACAAAUG [Fiskers Ex 1 - 19] (puzzle: Exclusion 1) | – | – | – | – | 61 nM | –
19 | UUGGUACUGGUAGGAUAUCCGUUGGAAACCGUCGGAGAAGGACCACAGUCACUGGGUCUUUGUCAAGUGGAGUGGAAGAACCAU [pwkr exNG1 F6.24] (Eterna round: R96, puzzle: Exclusion NG 1) | 224 nM | 227 nM | 221 nM | – | – | –
20 | GGGAUGUCAGGAUAUCCGAAUAAUAACAACAAUAACAGAAAGGAGAAGGGACAUGAGGAUCACCCAUGUAAAAG [Bemadiin] (puzzle: Exclusion 4) | – | – | – | 39.9 nM | 37.5 nM | 40 nM
21 | UACCUGAGGCAAAGCUUUAGGUAAACAUGAGGAUCACCCAUGUAGGAUAUGGUAGGCAAAGCUUACCAGAAGGACAUGAAAAUU [Mat - Exclusion NG 3 - Mod of JL - D36] (Eterna round: R96, puzzle: Exclusion NG 3) | 333 nM | 87.8 nM | 53.3 nM | – | – | –
22 | CCGGAUAUGCAGGAUAUCGUAUCGGAGACGAUACGAGAAGGGUAUACAUGAGGAUCACCCAUGUGUCCUACCGG [Mat - Exclusion 6 - Eli Mod - D84] (puzzle: Exclusion 6) | – | – | – | – | 22.2 nM | –
23 | GUGUAGGUAGGAUAUACAUGAGGAUCACCCAUGUGAAUAAGAUAGAAUAAGAUAAAGUGUAGAAGGACUAGUGU [Excluse me!!! 14 - Jieux - Exclusion 3] (puzzle: Exclusion 3) | – | – | – | – | 38.7 nM | –
24 | UUGCUUUCUUAGUACUCUACAAGUUUUUUGUUCGUUUUAACAUGAGGAUCACCCAUGUCUAGUGGAUCUGAUCGGGU [JL ViennaUCT Isreen mod 6] (puzzle: Sensor v3, turn-off variant 2) | – | – | – | 146 nM | 263 nM | 173 nM
25 | CUUAGCCUAAAAUCACGCAAGCUUUUUGCUUGUCUUAAGACAUGAGGAUCACCCAUGUCCGGGCUGAACUUAUGUAA [Laantiusan] (puzzle: Sensor v3, turn-off variant 2) | – | – | – | 22.7 nM | 30.9 nM | 26.4 nM
26 | CAGUACUACAAGCUUUGGGACAUGAGGAUCACCCAUGUUCGUCUUAUUGAUCUAGGUACGCUGACGUACCUAGAUCU [JL-sv1-2.11 Brourd mod] (puzzle: Sensor v3, turn-off variant 1) | – | – | – | 16.7 nM | 33.1 nM | 15.3 nM
27 | AACCAGCGAGGAUAUUGUCGGUACAACAUGAGGAUCACCCAUGUCACGUGAUCUUCCCAACAAGAAGGUGCACUAC [Axeedesza] (Eterna round: R97, puzzle: Exclusion 5) | 324 nM | 272 nM | – | – | – | –
28 | GAUACCUCAGUGAGGAUAUUUUAUAGAUUAACCAGGAAGAAGGCACAUGAGGAUCACCCAUGUCCACGGCAGCC [Eternabot (L1) Solution 10] (Eterna round: R97, puzzle: Brourd's mod of Exclusion 4) | 23.2 nM | 20.9 nM | – | – | – | –
29 | AGAUGUAGAUACCGAUCCUACAUGAGGAUCACCCAUGUAGCUAGACGUGCGCGCGGCGCUCGUCAGACUACCAGUAG [salish99_TOv1_r3_093] (puzzle: Sensor v3, turn-off variant 1) | – | – | – | 328 nM | 248 nM | 326 nM
30 | AAGAAGCUGAGAGGAUAUGGAGCCGAAACGGAGCUAGAAGGCUUUGCAGAAAGACAUGAGGAUCACCCAUGUUCAUGUAGAGAA [AK ExNG1-1.3] (Eterna round: R96, puzzle: Exclusion NG 1) | 15.2 nM | 18.4 nM | 12.6 nM | – | – | –
31 | GUGUAACUACACGGGCUCAACAUGAGGAUCACCCAUGUCAUACACGCAAGCUUUCUGCUUGUCUUAUCUGUCCGUGA [Acela] (puzzle: Sensor v3, turn-off variant 1) | – | – | – | 13.2 nM | 12.5 nM | 10.4 nM
32 | AUAAAUGAUGAGGAUAUCACUAGCGAUAGCUAGUGAGAAGGCAUCACAUGAGGAUCACCCAUGUGAUCCAAUAA [Mod6 Ex6/6-A4 by Brourd] (Eterna round: R97, puzzle: Exclusion 6) | 479 nM | 359 nM | – | – | – | –
33 | AGAUGGCGAGGAUAUACAUGAGGAUCACCCAUGUGAGAAUAGAAAGUGAGGAAGAAAAGUAGAAGGCGCUGUCA [Mat - Exclusion 3 - Mod of Salish D22] (puzzle: Exclusion 3) | – | – | – | 125 nM | 59.7 nM | 73.4 nM
34 | GGUCGCUUUGUCAGGAUAUCAGGUUAGAUCUGAUUUGAGAAGGGACAUGAGGAUCACCCAUGUGGCGACCUAAA [Eternabot (L1) Solution 42] (Eterna round: R97, puzzle: Brourd's mod of Exclusion 4) | 26.4 nM | 31.7 nM | – | – | – | –

Source: the supplement of paper PMC9170038
